Assay results as given in US20160024219A1 (Sanofi, published 2016).

Key:
CD52 peptide #741 [1] = target: T1, CD52 peptide #741; assay: BIACORE (SPR), CD52 peptide #741 chip; antibody after 4 weeks at 45C, pH 7.2 in PBS
T1 construct: also called CD52 peptide #741 chip
Procedure: (§1) The proteins (85 μg) were diluted in PBS, pH 7.2, to 0.4 mg/ml, and incubated at 45° C. for 4 weeks. Their binding affinity to CD52 peptide was measured on BIACORE™.

CD52 peptide #741 [2] = target: T1, CD52 peptide #741; assay: BIACORE (SPR), CD52 peptide #741 chip, apparent KD; antibody after 2 weeks at 37C, 3 component buffer pH 7.5
Source text: (§2) Aliquots were taken at Week 2 and Week 4 (T2 and T4) to assess their affinity to CD52 peptide by BIACORE™.

CD52 peptide #741 [3] = target: T1, CD52 peptide #741; assay: BIACORE (SPR), CD52 peptide #741 chip, preliminary constant; antibody after 2 weeks at 45C, pH 7.2 in PBS
Procedure: as §1

[4] = target: T2, CD52 peptide mimotope (CGQNDTSQTSSPSAD); assay: BIACORE (SPR), CD52 peptide, purified antibody; concentrations used for fit 7.5nM - 0.2nM
T2 construct: Immobilized at a low level on a CM5 chip via thiol chemistry using the N-terminal Cys; also called CD52 peptide chip
T2 peptide: CGQNDTSQTSSPSAD

CD52 peptide #741 [5] = target: T1, CD52 peptide #741; assay: BIACORE (SPR), CD52 peptide #741 chip, preliminary constant; antibody at week 0 (before incubation)
Procedure: as §1

CD52 peptide #741 [6] = target: T1, CD52 peptide #741; assay: BIACORE (SPR), CD52 peptide #741 chip, preliminary constant; antibody after 4 weeks at 45C, pH 7.2 in PBS
Procedure: as §1

CD52 peptide #741 [7] = target: T1, CD52 peptide #741; assay: BIACORE (SPR), CD52 peptide #741 chip; antibody after 2 weeks at 45C, pH 7.2 in PBS
Procedure: as §1

CD52 peptide #741 [8] = target: T1, CD52 peptide #741; assay: BIACORE (SPR), CD52 peptide #741 chip, apparent KD; table 'after 37C incubation', T0, 3 component buffer pH 7.5
Source text: as §2

CD52 peptide #741 [9] = target: T1, CD52 peptide #741; assay: BIACORE (SPR), CD52 peptide #741 chip, apparent KD; antibody after 4 weeks at 37C, 3 component buffer pH 7.5
Source text: as §2

CD52 peptide #741 [10] = target: T1, CD52 peptide #741; assay: BIACORE (SPR), CD52 peptide #741 chip; week 0, reference of the normalization
Procedure: as §1

[11] = target: T2, CD52 peptide mimotope (CGQNDTSQTSSPSAD); assay: BIACORE (SPR), CD52 peptide, purified antibody; concentrations used for fit 240nM - 0.4nM
[12] = target: T2, CD52 peptide mimotope (CGQNDTSQTSSPSAD); assay: BIACORE (SPR), CD52 peptide, purified antibody; concentrations used for fit 240nM - 0.4nM; sheet's note to the asterisk: for more accurate KD, a higher concentration range should be used
[13] = target: T2, CD52 peptide mimotope (CGQNDTSQTSSPSAD); assay: BIACORE (SPR), CD52 peptide, antibody purified from CHO cells; inset table, column kd; the sheet prints no unit, unit from Table 5 of the text
Procedure: (§3) Several concentrations of anti-CD52 antibody made in HBS-EP running buffer (1 to 20 nM) were injected over the surface to monitor the binding. Kinetic analysis was performed using Scrubber2 software.

[14] = target: T2, CD52 peptide mimotope (CGQNDTSQTSSPSAD); assay: BIACORE (SPR), CD52 peptide, purified antibody; concentrations used for fit 240nM - 1.9nM; sheet's note to the asterisk: for more accurate KD, a higher concentration range should be used
[15] = target: T2, CD52 peptide mimotope (CGQNDTSQTSSPSAD); assay: BIACORE (SPR), CD52 peptide, antibody purified from CHO cells; inset table, column ka; the sheet prints no unit, unit from Table 5 of the text
Procedure: as §3

[16] = target: T2, CD52 peptide mimotope (CGQNDTSQTSSPSAD); assay: BIACORE, CD52 peptide on CM5 chip; antibody from CHO; CHO-produced Ab1; higher concentrations, up to 1900 nM
Procedure: as §3

[17] = target: T2, CD52 peptide mimotope (CGQNDTSQTSSPSAD); assay: BIACORE (SPR), CD52 peptide, purified antibody; concentrations used for fit 240nM - 1.9nM
[18] = target: T2, CD52 peptide mimotope (CGQNDTSQTSSPSAD); assay: BIACORE (SPR), CD52 peptide, antibody purified from CHO cells; inset table
Procedure: as §3

[19] = target: T2, CD52 peptide mimotope (CGQNDTSQTSSPSAD); assay: BIACORE, CD52 peptide on CM5 chip
Procedure: as §3

[20] = target: T2, CD52 peptide mimotope (CGQNDTSQTSSPSAD); assay: BIACORE, CD52 peptide on CM5 chip; antibody from HEK293; HEK293-produced Ab1; higher concentrations, up to 1900 nM
Procedure: as §3

B1: Ab24 (antibody, human IgG1, kappa, V domains shown)
VH: EVQLVESGGGLVQPGGSLRLSCAASGFPFSNYWMNWVRQAPGKGLEWVGQIRLKSNNYATHYAESVKGRFTISRDDSKNSLYLQMNSLKTEDTAVYYCTPIDYWGQGTTVTVSS
VL: DIVMTQTPLSLSVTPGQPASISCKSSQSLLYSNVKTYLNWVLQKPGQSPQRLIYLVSKLDSGVPDRFSGSGSGTDFTLKISRVEAEDVGVYYCVQGSHFHTFGQGTKLEIKR
%T0 (affinity relative to T0) (CD52 peptide #741 [1]): 29.8%
Kd (CD52 peptide #741 [2]): 10.5 nM
Kd (CD52 peptide #741 [3]): 16.9 nM
Kd [4]: 5.6 nM
koff [4]: 0.019 s⁻¹
kon [4]: 3.4e+06 M⁻¹ s⁻¹
Kd (CD52 peptide #741 [5]): 5.15 nM
Kd (CD52 peptide #741 [6]): 17.2 nM
%T0 (affinity relative to T0) (CD52 peptide #741 [7]): 30.5%
Kd (CD52 peptide #741 [8]): 7 nM
Kd (CD52 peptide #741 [9]): 11.3 nM
%T0 (affinity relative to T0) (CD52 peptide #741 [10]): 100%

B2: Ab25 (antibody, human IgG1, kappa, V domains shown)
VH: EVQLVESGGGLVQPGGSLRLSCAASGFPFSNYWMNWVRQAPGKGLEWVGQIRLKSNNYATHYAESVKGRFTISRDDSKNSLYLQMNSLKTEDTAVYYCTPIDYWGQGTTVTVSS
VL: DIVMTQTPLSLSVTPGQPASISCKSSQSLLYSNYKTYLNWVLQKPGQSPQRLIYLVSKLDSGVPDRFSGSGSGTDFTLKISRVEAEDVGVYYCVQGSHFHTFGQGTKLEIKR
koff [11]: 0.073 s⁻¹
kon [11]: 700000 M⁻¹ s⁻¹
Kd [12]: 111 nM

B3: Ab10 (antibody, human IgG1, kappa, V domains shown)
VH: EVQLVESGGGLVQPGGSLRLSCAASGFPFSNYWMNWVRQAPGKGLEWVGQIRLKSNNYATHYAESVKGRFTISRDDSKNSLYLQMNSLKTEDTAVYYCTPIDYWGQGTTVTVSS
VL: DIVMTQTPLSLSVTPGQPASISCKSSQSLLYSNAKTYLNWVLQKPGQSPQRLIYLVSKLDSGVPDRFSGSGSGTDFTLKISRVEAEDVGVYYCVQGSHFHTFGQGTKLEIKR
Kd [4]: 5 nM
Kd (CD52 peptide #741 [5]): 5.63 nM
Kd (CD52 peptide #741 [6]): 144 nM

B4: Ab1 (antibody, human IgG1, kappa, V domains shown)
VH: EVQLVESGGGLVQPGGSLRLSCAASGFPFSNYWMNWVRQAPGKGLEWVGQIRLKSNNYATHYAESVKGRFTISRDDSKNSLYLQMNSLKTEDTAVYYCTPIDYWGQGTTVTVSS
VL: DIVMTQTPLSLSVTPGQPASISCKSSQSLLYSDGKTYLNWVLQKPGQSPQRLIYLVSKLDSGVPDRFSGSGSGTDFTLKISRVEAEDVGVYYCVQGSHFHTFGQGTKLEIKR
notes: made in HEK293 and in CHO cells
koff [13]: 0.383 s⁻¹
Kd [14]: 366 nM
kon [15]: 306000 M⁻¹ s⁻¹
Kd [16]: 1250 nM
koff [16]: 0.383 s⁻¹
kon [16]: 300000 M⁻¹ s⁻¹
koff [17]: 0.421 s⁻¹
kon [17]: 1.1e+06 M⁻¹ s⁻¹
Kd [18]: 1250 nM
fold reduction in affinity compared to Ab26 [19]: > 400 fold
Kd [20]: 1480 nM
koff [20]: 0.58 s⁻¹
kon [20]: 400000 M⁻¹ s⁻¹

B5: Ab12 (antibody, human IgG1, kappa, V domains shown)
VH: EVQLVESGGGLVQPGGSLRLSCAASGFPFSNYWMNWVRQAPGKGLEWVGQIRLKSNNYATHYAESVKGRFTISRDDSKNSLYLQMNSLKTEDTAVYYCTPIDYWGQGTTVTVSS
VL: DIVMTQTPLSLSVTPGQPASISCKSSQSLLYSNEKTYLNWVLQKPGQSPQRLIYLVSKLDSGVPDRFSGSGSGTDFTLKISRVEAEDVGVYYCVQGSHFHTFGQGTKLEIKR
Kd [11]: 39.8 nM
koff [11]: 0.045 s⁻¹
kon [11]: 1.1e+06 M⁻¹ s⁻¹

B6: Ab3 (antibody, human IgG1, kappa, V domains shown)
VH: EVQLVESGGGLVQPGGSLRLSCAASGFPFSNYWMNWVRQAPGKGLEWVGQIRLKSNNYATHYAESVKGRFTISRDDSKNSLYLQMNSLKTEDTAVYYCTPIDYWGQGTTVTVSS
VL: DIVMTQTPLSLSVTPGQPASISCKSSQSLLYSKGKTYLNWVLQKPGQSPQRLIYLVSKLDSGVPDRFSGSGSGTDFTLKISRVEAEDVGVYYCVQGSHFHTFGQGTKLEIKR
notes: made in HEK293 cells
Kd [11]: 65.8 nM
koff [11]: 0.198 s⁻¹
kon [11]: 3.1e+06 M⁻¹ s⁻¹

B7: Ab4 (antibody, human IgG1, kappa, V domains shown)
VH: EVQLVESGGGLVQPGGSLRLSCAASGFPFSNYWMNWVRQAPGKGLEWVGQIRLKSNNYATHYAESVKGRFTISRDDSKNSLYLQMNSLKTEDTAVYYCTPIDYWGQGTTVTVSS
VL: DIVMTQTPLSLSVTPGQPASISCKSSQSLLYSQGKTYLNWVLQKPGQSPQRLIYLVSKLDSGVPDRFSGSGSGTDFTLKISRVEAEDVGVYYCVQGSHFHTFGQGTKLEIKR
notes: made in HEK293 cells
Kd [14]: 222 nM
koff [17]: 0.284 s⁻¹
kon [17]: 1.3e+06 M⁻¹ s⁻¹
